Measured values reported in paper PMC8692893.
Where “and” joins values, the source holds several entries; their conditions need not be identical. Equal values may be shown once. Values belong to the substance of their own block, whether it stands above or below them.

Legend:
[1] = target: IgW in bamboo shark plasma (Chiloscyllium plagiosum (endogenous in plasma)); assay: non-reducing gel electrophoresis with Western blot (data not shown); IgW multimers in plasma, data not shown; anti-IgW [V43]
[2] = target: immunoglobulin new antigen receptor (IgNAR), secretory, in bamboo shark plasma (Chiloscyllium plagiosum (endogenous in plasma)); assay: non-reducing SDS-PAGE and SDS-agarose gel electrophoresis with Western blot; 1 µl plasma heated at 65°C for 10 min in SDS-loading buffer without reducing agents; 5% SDS-PAGE; 1.5% agarose gel with 0.1% SDS in the running buffer for plasma proteins larger than 300 kDa; blots probed with anti-IgNAR pAb or anti-IgM [Z69]; multimers counted in Ig monomers by molecular weight
[3] = target: IgM in bamboo shark plasma (Chiloscyllium plagiosum (endogenous in plasma)); assay: as above

- stoichiometry N [1]: 5 and 2
Substance: IgW in bamboo shark plasma (natural protein)

- stoichiometry N [2]: 3 and 4 and 5
Substance: immunoglobulin new antigen receptor (IgNAR), secretory, in bamboo shark plasma (natural protein)

- stoichiometry N [3]: 5
Substance: IgM in bamboo shark plasma (natural protein)
